Where two headings read alike, the source gives them in different places.
B1: phage Mu middle operon regulator Mor (natural protein, bacteriophage Mu, UniProt P23848 1-129, looked up)
chain: MTEDLFGDLQDDTILAHLDNPAEDTSRFPALLAELNDLLRGELSRLGVDPAHSLEIVVAICKHLGGGQVYIPRGQALDSLIRDLRIWNDFNGRNVSELTTRYGVTFNTVYKAIRRMRRLKYRQYQPSLL
B2: phage Mu late gene transcription activator C (natural protein, bacteriophage Mu, UniProt P06022 1-140, looked up)
chain: MQHDLFEHDPAIRQLIGHIDNIPAPELESRWPRSVVDLIDVLENELKRQNVSNPRELARKQAVALSCFLGGRQFYIPCGDTILTALRDDLLYCQFNGRNMEELRRQYRLSQPQIYQIIARQRKLHTRRHQPDLFSPETPK

Columns and labels:
Assay in all cases: cryo-EM structure
[1] = molecular target: E. coli RNA polymerase σ70 subunit (E. coli, UniProt P00579 1-613)
cryo-EM structure [2] = molecular target: the molecule itself
cryo-EM structure [3] = molecular target: the molecule itself; remark: listed apart in the source

E. coli RNA polymerase σ70 subunit, sequence (P00579 whole entry): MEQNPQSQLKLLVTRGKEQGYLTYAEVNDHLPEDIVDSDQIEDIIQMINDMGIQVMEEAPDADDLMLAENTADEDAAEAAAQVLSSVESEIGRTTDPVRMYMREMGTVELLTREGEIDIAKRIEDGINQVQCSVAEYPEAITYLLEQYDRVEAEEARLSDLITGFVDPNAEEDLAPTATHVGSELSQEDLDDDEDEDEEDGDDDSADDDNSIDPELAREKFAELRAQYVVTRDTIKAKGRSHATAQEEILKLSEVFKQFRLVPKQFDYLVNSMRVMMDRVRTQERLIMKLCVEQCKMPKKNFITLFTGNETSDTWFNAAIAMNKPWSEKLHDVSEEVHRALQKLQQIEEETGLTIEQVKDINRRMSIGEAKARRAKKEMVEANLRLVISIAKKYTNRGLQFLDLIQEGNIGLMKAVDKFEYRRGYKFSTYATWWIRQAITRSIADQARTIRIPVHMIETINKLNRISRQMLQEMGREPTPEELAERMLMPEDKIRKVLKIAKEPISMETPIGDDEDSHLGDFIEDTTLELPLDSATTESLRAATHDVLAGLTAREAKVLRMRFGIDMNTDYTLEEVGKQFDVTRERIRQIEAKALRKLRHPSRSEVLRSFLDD

Row | Binder | binding result [1] | stoichiometry N (cryo-EM structure [2]) | stoichiometry N (cryo-EM structure [3])
1 | B1 | binds | 4 | 
2 | B2 |  |  | 4

— paper doi:10.1101/2025.05.02.651988 (bioRxiv, 2025)
